Experimental data: paper PMC12135372

What was measured:
[1] = molecular target: T1, Dr-tRNA-LC-TR (DDX1 C-term, RTCB, FAM98B, CGI99, ASW N-term) (Danio rerio) (UniProt F1R2L8+Q6NZS4+A0PJS3+Q7ZUH1); experiment: MST; settings: 2 mM GTP, 2 mM MnCl2 (buffer B, implied by text); MST: 25 mM Hepes pH 7.5, 150 mM NaCl, 1 mM DTT, with or without 2 mM GTP and 2 mM MnCl2, 20 nM Cy5-tRNA, temperature not stated; crosslinking: 50 mM Tris pH …
T1 sequence 1: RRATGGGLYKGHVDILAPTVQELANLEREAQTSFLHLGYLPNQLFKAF
T1 sequence 2: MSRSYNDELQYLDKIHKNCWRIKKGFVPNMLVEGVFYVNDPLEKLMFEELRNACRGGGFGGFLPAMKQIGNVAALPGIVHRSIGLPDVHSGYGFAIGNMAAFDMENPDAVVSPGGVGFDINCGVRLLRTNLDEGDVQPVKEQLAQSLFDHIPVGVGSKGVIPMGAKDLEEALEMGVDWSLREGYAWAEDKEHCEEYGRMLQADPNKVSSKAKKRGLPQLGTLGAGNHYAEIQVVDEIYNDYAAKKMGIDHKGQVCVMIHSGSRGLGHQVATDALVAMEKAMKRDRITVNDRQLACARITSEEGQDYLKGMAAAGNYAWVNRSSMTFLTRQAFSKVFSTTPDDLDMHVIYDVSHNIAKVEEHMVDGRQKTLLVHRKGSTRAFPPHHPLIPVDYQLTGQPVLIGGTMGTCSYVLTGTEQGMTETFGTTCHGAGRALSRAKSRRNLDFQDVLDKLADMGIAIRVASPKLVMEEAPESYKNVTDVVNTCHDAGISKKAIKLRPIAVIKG
T1 sequence 3: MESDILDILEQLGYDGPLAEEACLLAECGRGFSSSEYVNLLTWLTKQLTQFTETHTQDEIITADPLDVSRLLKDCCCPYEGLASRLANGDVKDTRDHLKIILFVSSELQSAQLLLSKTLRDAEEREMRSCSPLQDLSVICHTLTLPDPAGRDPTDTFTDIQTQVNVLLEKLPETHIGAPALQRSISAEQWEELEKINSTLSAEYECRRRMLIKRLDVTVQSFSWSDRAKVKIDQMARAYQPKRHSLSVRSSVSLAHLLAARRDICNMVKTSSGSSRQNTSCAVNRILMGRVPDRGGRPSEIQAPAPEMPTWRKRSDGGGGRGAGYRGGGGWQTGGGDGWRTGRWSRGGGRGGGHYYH
T1 sequence 4: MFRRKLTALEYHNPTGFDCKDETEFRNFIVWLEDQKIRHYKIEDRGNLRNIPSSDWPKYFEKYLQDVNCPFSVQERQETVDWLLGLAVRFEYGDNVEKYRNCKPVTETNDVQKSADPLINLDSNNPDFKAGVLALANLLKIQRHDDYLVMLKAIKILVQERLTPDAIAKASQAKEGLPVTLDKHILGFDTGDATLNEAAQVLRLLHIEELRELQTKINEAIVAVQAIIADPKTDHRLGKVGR

[2] = molecular target: Dr-tRNA-LC-FL (DDX1, RTCB, FAM98B, CGI99, ASW) (Danio rerio) (UniProt F1R2L8+Q6NZS4+A0PJS3+Q7ZUH1); experiment: MST; settings: 2 mM GTP, 2 mM MnCl2 (buffer B, implied by text); MST: 25 mM Hepes pH 7.5, 150 mM NaCl, 1 mM DTT, with or without 2 mM GTP and 2 mM MnCl2, 20 nM Cy5-tRNA, temperature not stated; crosslinking: 50 mM Tris pH …
[3] = molecular target: Full-length five-subunit Danio rerio tRNA ligase complex (DDX1, RTCB, FAM98B, CGI99, ASW) (Danio rerio) (UniProt F1R2L8)
[4] = molecular target: Truncated Danio rerio tRNA ligase complex (His6-RTCB, FAM98B, CGI99, ASW 1-83, DDX1 693-740) (Danio rerio) (UniProt Q6NZS4)

Substance | Kd [1] [nM] | Kd [2] [nM] | RNA ligase activity on the short 10-bp RNA duplex substrate, percent of substrate converted to product, time course up to 120 min (0.15 μM complex, 0.6 μM Dr-Archease) [3] [%] | RNA ligase activity on the short 10-bp RNA duplex substrate, percent of substrate converted to product, time course up to 120 min (0.15 μM complex, 0.6 μM Dr-Archease) [4] [%]
GGCUCCAGUGGCGCAAUCGGUUAGCGCGCGGUACUUAUAAUGCCGAGGUUGUGAGUUCGAGCCUCACCUGGAGCACCA [tRNAIle] | 89.4 | 94 | – | –
Danio rerio Archease (natural protein) | – | – | 60 | 85
